In patent publication US20230365675A1 (published 2023):

B1: sdCD33_10 (VHH)
VHH: QVQLVETGGGLVRAGGSLRLSCAASGRTADIYNIGWFRQAPGKEREFVAAITWIGRTPYYADAVKGRFAFSTDSAKNTVSLQMDNLKPEDTGVYYCNAAHYLEGNTDYYWGQGTQVTVSS
B2: sdCD33_3 (VHH)
VHH: DVQLVESGGGLVQPGGSLRLSCSVSGNIDRFYAMGWYRQAPGKQRELVAQLTNNEITTYGDSVEGQFSISGDFDANTVYLQMDSLKPEDTAVYYCHAHVTTTRWSQDYYWGQGTRVTVSS
B3: sdCD33_4 (VHH)
VHH: QVKLEESGGGSVQAGESLRLSCTASGITFRDYDIDWYRQAPGKEREWLATITPSGTTHYPDSVKGRATISRDSAKNTVYLQMNSLKPEDTARYECNTLAYWGSGTQVTVSS

Columns and labels:
[1] = biological target: CD33-GFP fusion protein, wild type (WT), on 293FT cells (UniProt P20138); test: FACS, WT CD33-GFP on 293FT cells
CD33-GFP fusion protein, wild type (WT), on 293FT cells, sequence (P20138 18-364): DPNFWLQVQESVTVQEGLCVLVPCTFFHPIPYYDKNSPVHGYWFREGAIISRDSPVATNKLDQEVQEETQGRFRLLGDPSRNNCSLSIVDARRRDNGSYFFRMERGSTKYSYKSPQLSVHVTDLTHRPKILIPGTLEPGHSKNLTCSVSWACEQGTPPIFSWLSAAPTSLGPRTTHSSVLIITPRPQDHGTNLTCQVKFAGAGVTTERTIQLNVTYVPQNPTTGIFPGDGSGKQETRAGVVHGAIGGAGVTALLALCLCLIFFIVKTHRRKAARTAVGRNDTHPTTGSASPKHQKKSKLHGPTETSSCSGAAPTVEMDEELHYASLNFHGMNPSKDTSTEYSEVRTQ

[2] = biological target: Mutant CD33-GFP JS23 (L23N) on 293FT cells (UniProt P20138); test: FACS, mutant CD33-GFP on 293FT cells
Mutant CD33-GFP JS23 (L23N) on 293FT cells, sequence (P20138 18-364 L23N): as the sequence (P20138 18-364) above, with L6N counted along it

[3] = biological target: Mutant CD33-GFP JS24 (Q24E) on 293FT cells (UniProt P20138); test: FACS, mutant CD33-GFP on 293FT cells
Mutant CD33-GFP JS24 (Q24E) on 293FT cells, sequence (P20138 18-364 Q24E): as the sequence (P20138 18-364) above, with Q7E counted along it

[4] = biological target: Mutant CD33-GFP JS25 (V25M) on 293FT cells (UniProt P20138); test: FACS, mutant CD33-GFP on 293FT cells
Mutant CD33-GFP JS25 (V25M) on 293FT cells, sequence (P20138 18-364 V25M): as the sequence (P20138 18-364) above, with V8M counted along it

[5] = biological target: Mutant CD33-GFP JS28 (S28L) on 293FT cells (UniProt P20138); test: FACS, mutant CD33-GFP on 293FT cells
Mutant CD33-GFP JS28 (S28L) on 293FT cells, sequence (P20138 18-364 S28L): as the sequence (P20138 18-364) above, with S11L counted along it

[6] = biological target: Mutant CD33-GFP M10 (Y127A) on 293FT cells (UniProt P20138); test: FACS, mutant CD33-GFP on 293FT cells
Mutant CD33-GFP M10 (Y127A) on 293FT cells, sequence (P20138 18-364 Y127A): as the sequence (P20138 18-364) above, with Y110A counted along it

[7] = biological target: Mutant CD33-GFP M11 (L78T) on 293FT cells (UniProt P20138); test: FACS, mutant CD33-GFP on 293FT cells
Mutant CD33-GFP M11 (L78T) on 293FT cells, sequence (P20138 18-364 L78T): as the sequence (P20138 18-364) above, with L61T counted along it

[8] = biological target: Mutant CD33-GFP M12 (G88S) on 293FT cells (UniProt P20138); test: FACS, mutant CD33-GFP on 293FT cells
Mutant CD33-GFP M12 (G88S) on 293FT cells, sequence (P20138 18-364 G88S): as the sequence (P20138 18-364) above, with G71S counted along it

[9] = biological target: Mutant CD33-GFP M13 (R91E) on 293FT cells (UniProt P20138); test: FACS, mutant CD33-GFP on 293FT cells
Mutant CD33-GFP M13 (R91E) on 293FT cells, sequence (P20138 18-364 R91E): as the sequence (P20138 18-364) above, with R74E counted along it

[10] = biological target: Mutant CD33-GFP M14 (E170R) on 293FT cells (UniProt P20138); test: FACS, mutant CD33-GFP on 293FT cells
Mutant CD33-GFP M14 (E170R) on 293FT cells, sequence (P20138 18-364 E170R): as the sequence (P20138 18-364) above, with E153R counted along it

[11] = biological target: Mutant CD33-GFP M15 (Q171A) on 293FT cells (UniProt P20138); test: FACS, mutant CD33-GFP on 293FT cells
Mutant CD33-GFP M15 (Q171A) on 293FT cells, sequence (P20138 18-364 Q171A): as the sequence (P20138 18-364) above, with Q154A counted along it

[12] = biological target: Mutant CD33-GFP M16 (4889AII) on 293FT cells (UniProt P20138); test: FACS, mutant CD33-GFP on 293FT cells
[13] = biological target: Mutant CD33-GFP M17 (F21Y) on 293FT cells (UniProt P20138); test: FACS, mutant CD33-GFP on 293FT cells
Mutant CD33-GFP M17 (F21Y) on 293FT cells, sequence (P20138 18-364 F21Y): as the sequence (P20138 18-364) above, with F4Y counted along it

[14] = biological target: Mutant CD33-GFP M18 (353AAL) on 293FT cells (UniProt P20138); test: FACS, mutant CD33-GFP on 293FT cells
[15] = biological target: Mutant CD33-GFP M19 (348ATAI) on 293FT cells (UniProt P20138); test: FACS, mutant CD33-GFP on 293FT cells
[16] = biological target: Mutant CD33-GFP M4 (R122D) on 293FT cells (UniProt P20138); test: FACS, mutant CD33-GFP on 293FT cells
Mutant CD33-GFP M4 (R122D) on 293FT cells, sequence (P20138 18-364 R122D): as the sequence (P20138 18-364) above, with R105D counted along it

[17] = biological target: Mutant CD33-GFP M5 (AEAD), quadruple mutant, on 293FT cells (UniProt P20138); test: FACS, mutant CD33-GFP on 293FT cells
Mutant CD33-GFP M5 (AEAD), quadruple mutant, on 293FT cells, sequence (P20138 other isoform, or with tags, fused parts or gaps mutant): as the sequence (P20138 18-364) above, with W5A, H28E, N82A, R105D counted along it

[18] = biological target: Mutant CD33-GFP M9 (Y49, 50A) on 293FT cells (UniProt P20138); test: FACS, mutant CD33-GFP on 293FT cells
Mutant CD33-GFP M9 (Y49, 50A) on 293FT cells, sequence (P20138 other isoform, or with tags, fused parts or gaps mutant): as the sequence (P20138 18-364) above, with Y32A, Y33A counted along it

[19] = biological target: Mutant CD33-GFP N20D on 293FT cells (UniProt P20138); test: FACS, mutant CD33-GFP on 293FT cells
Mutant CD33-GFP N20D on 293FT cells, sequence (P20138 18-364 N20D): as the sequence (P20138 18-364) above, with N3D counted along it

[20] = biological target: T1, Mutant CD33-GFP M1 (W22A) on 293FT cells (UniProt P20138 18-364); test: FACS, mutant CD33-GFP on 293FT cells
T1 construct: whole, on cells; not shown: GFP fused to CD33
T1 sequence (P20138 18-364 W22A): as the sequence (P20138 18-364) above, with W5A counted along it

[21] = biological target: T2, Mutant CD33-GFP M2 (H45E) on 293FT cells (UniProt P20138 18-364); test: FACS, mutant CD33-GFP on 293FT cells
T2 construct: whole, on cells; not shown: GFP fused to CD33
T2 sequence (P20138 18-364 H45E): as the sequence (P20138 18-364) above, with H28E counted along it

[22] = biological target: T3, Mutant CD33-GFP M3 (N99A) on 293FT cells (UniProt P20138 18-364); test: FACS, mutant CD33-GFP on 293FT cells
T3 construct: whole, on cells; not shown: GFP fused to CD33
T3 sequence (P20138 18-364 N99A): as the sequence (P20138 18-364) above, with N82A counted along it

[23] = biological target: T4, Mutant CD33-GFP M6 (F43N) on 293FT cells (UniProt P20138 18-364); test: FACS, mutant CD33-GFP on 293FT cells
T4 construct: whole, on cells; not shown: GFP fused to CD33
T4 sequence (P20138 18-364 F43N): as the sequence (P20138 18-364) above, with F26N counted along it

[24] = biological target: T5, Mutant CD33-GFP M7 (R98D) on 293FT cells (UniProt P20138 18-364); test: FACS, mutant CD33-GFP on 293FT cells
T5 construct: whole, on cells; not shown: GFP fused to CD33
T5 sequence (P20138 18-364 R98D): as the sequence (P20138 18-364) above, with R81D counted along it

[25] = biological target: T6, Mutant CD33-GFP M8 (K52A) on 293FT cells (UniProt P20138 18-364); test: FACS, mutant CD33-GFP on 293FT cells
T6 construct: whole, on cells; not shown: GFP fused to CD33
T6 sequence (P20138 18-364 K52A): as the sequence (P20138 18-364) above, with K35A counted along it

[26] = biological target: Biotinylated CD33 protein (UniProt P20138); test: Octet competition on biotinylated CD33; competitor 348
Biotinylated CD33 protein, sequence (P20138 18-259 limits assumed): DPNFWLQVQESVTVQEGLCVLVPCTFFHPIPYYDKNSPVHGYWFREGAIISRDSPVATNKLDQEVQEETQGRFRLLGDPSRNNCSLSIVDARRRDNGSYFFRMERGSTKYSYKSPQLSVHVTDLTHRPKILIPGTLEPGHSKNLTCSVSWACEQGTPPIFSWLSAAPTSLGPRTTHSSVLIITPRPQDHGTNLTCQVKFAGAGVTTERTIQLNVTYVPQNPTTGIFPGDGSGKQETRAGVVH

[27] = biological target: Biotinylated CD33 protein (UniProt P20138); test: Octet competition on biotinylated CD33; competitor 353
[28] = biological target: Biotinylated CD33 protein (UniProt P20138); test: Octet competition on biotinylated CD33; competitor 389
[29] = biological target: Biotinylated CD33 protein (UniProt P20138); test: Octet competition on biotinylated CD33; competitor 413
[30] = biological target: Biotinylated CD33 protein (UniProt P20138); test: Octet competition on biotinylated CD33; competitor 416
[31] = biological target: Biotinylated CD33 protein (UniProt P20138); test: Octet competition on biotinylated CD33; competitor 420
[32] = biological target: Biotinylated CD33 protein (UniProt P20138); test: Octet competition on biotinylated CD33; competitor 424
[33] = biological target: Biotinylated CD33 protein (UniProt P20138); test: Octet competition on biotinylated CD33; competitor 426
[34] = biological target: Biotinylated CD33 protein (UniProt P20138); test: Octet competition on biotinylated CD33; competitor 430
[35] = biological target: Biotinylated CD33 protein (UniProt P20138); test: Octet competition on biotinylated CD33; competitor h195
[36] = biological target: Biotinylated CD33 protein (UniProt P20138); test: Octet competition on biotinylated CD33; competitor 429

Row | Molecule | FACS binding data [1] | FACS binding data [2] | FACS binding data [3] | FACS binding data [4] | FACS binding data [5] | FACS binding data [6] | FACS binding data [7] | FACS binding data [8] | FACS binding data [9] | FACS binding data [10] | FACS binding data [11] | FACS binding data [12] | FACS binding data [13] | FACS binding data [14] | FACS binding data [15] | FACS binding data [16] | FACS binding data [17] | FACS binding data [18] | FACS binding data [19] | FACS binding data [20] | further results
1 | hu195 (antibody) | 97.8 | – | – | – | – | – | – | – | – | – | – | – | – | – | – | – | – | – | – | – | –
2 | B1 | 98 | 98.4 | 98.2 | 99.6 | 99.6 | 93.9 | 67.3 | 98.6 | 98.5 | 98.4 | 98.9 | 98.6 | 94.1 | 15.6 | 98.3 | 21.1 | 0.12 | 0.22 | 96.6 | 99.1 | FACS binding data [21]: 65.5; FACS binding data [22]: 99; FACS binding data [23]: 97.6; FACS binding data [24]: 97.1; FACS binding data [25]: 66.1; Octet signal [26]: 0.616; Octet signal [27]: 1.01; Octet signal [28]: 1.16; Octet signal [29]: 0.865; Octet signal [30]: 0.552; Octet signal [31]: 0.95; Octet signal [32]: 0.628; Octet signal [33]: 0.543; Octet signal [34]: 1.44; Octet signal [35]: 1.37
3 | B2 | 98.3 | 99.1 | 99.4 | 99.7 | 99.6 | 96.3 | 78 | 99 | 98.7 | 98.7 | 98.2 | 98.4 | 98.2 | 99 | 99.6 | 98.5 | 0.31 | 0.64 | 98.7 | 99.4 | FACS binding data [21]: 98.8; FACS binding data [22]: 99.4; FACS binding data [23]: 99; FACS binding data [24]: 98.8; FACS binding data [25]: 97.3; Octet signal [26]: 0.0077; Octet signal [28]: 0.152; Octet signal [29]: 0.0204; Octet signal [30]: -0.0696; Octet signal [31]: -0.0387; Octet signal [32]: -0.108; Octet signal [33]: -0.0122; Octet signal [36]: -0.13; Octet signal [34]: 0.231; Octet signal [35]: 0.295
4 | B3 | 98.4 | 99 | 99.3 | 99.5 | 99.6 | 97.2 | 62.8 | 99 | 99.1 | 98.8 | 98.8 | 98.7 | 98.5 | 99.5 | 99.6 | 6.01 | 0.16 | 97.4 | 98.5 | 99.3 | FACS binding data [21]: 84.4; FACS binding data [22]: 97; FACS binding data [23]: 98.3; FACS binding data [24]: 21.5; FACS binding data [25]: 0.15; Octet signal [26]: -0.146; Octet signal [27]: -0.101; Octet signal [29]: -0.0267; Octet signal [30]: -0.28; Octet signal [31]: -0.0649; Octet signal [32]: -0.271; Octet signal [33]: -0.137; Octet signal [36]: -0.26; Octet signal [34]: 0.0905; Octet signal [35]: 0.355
